A short description of this experiment: 2D 1H NMR exchange (NOESY) measurement of cis/trans isomerisation in the pentapeptide. The format is biochemical. The note with it: 20 μM addition; for relative intensity of the cross signal of the peptide bond Ala-Tyr / relative intensity of the cross signal of the peptide bond Tyr-Ala: 25 mM pentapeptide, pH 7.1, 278° K; for relative intensity of the cross signal of the peptide bond Ala-Tyr: no addition 3.50 ± 0.51; for relative intensity of the cross signal of the peptide bond Tyr-Ala: no addition 3.89 ± 0.32. From the text:
A further possibility, only described in 1998, is the determination of the cis/trans isomerisation rate of secondary amide peptide bonds containing aromatic amino acids by means of 2D 1H NMR exchange experiments (Scherer G. et al., 1998, JACS 120:5568-5574). In Example 8, this NMR method is used to determine a catalytic acceleration of the cis/trans isomerisation of the peptide bonds Ala-Tyr and Tyr-Ala within the pentapeptide Ala-Ala-Tyr-Ala-Ala. The acceleration is accomplished by catalytic amounts of DnaK.
NMR Device: Bruker DRX-500, Equipped with z-gradient
• FIG. 8: The alanine methyl region from the two-dimensional exchange 1H-NMR spectrum of 25 mM Ala-Ala-Tyr-Ala-Ala in 25 mM Tris, 11 mM MgCl2, 50 mM KCl, 9:1H2O:D2O, pH 7.1 at 278° K. The mixing time of the phase-sensitive NOESY was 330 ms. Each FID had 184 scans. The amount of data from t1×t2=512×8192 points covered a spectral range of 5501 Hz×5482 Hz. The correction of the base line was carried out by adjustment with a polynom of fifth order in the F2 dimension. […] The experiment was carried out under identical conditions as described above. In addition, 20 μM DnaK was contained in the measuring solution.
In a further analysis of the method of the two-dimensional NOESY experiment illustrated in Example 8, the cross signals can be quantified by means of common mathematical techniques.

B1: Parvulin: peptidyl-prolyl cis/trans isomerase (Rahfeld et al., 1994) (protein)
chain: AKTAAALHILVKEEKLALDLLEQIKNGADFGKLAKKHSICPSGKRGGDLGEFRQGQMVPAFDKVVFSCPVLEPTGPLHTQFGYHIIKVLYRN
As to B1, the “catalysis of the cis/trans isomerisation of the Ala-Tyr and Tyr-Ala peptide bonds (in words)” value was “neither catalyse”; the “relative intensity of the cross signal of the peptide bond Ala-Tyr” value was found to be 2.90 ± 0.96; the “relative intensity of the cross signal of the peptide bond Tyr-Ala” value was found to be 3.11 ± 0.46.

B2: fragment of the TF: fragment of the trigger factor (Stoller G. et al., 1996) (protein)
chain: RKQQATWKEKDGAVEAEDRVTIDFTGSVDGEEFEGGKASDFVLAMGQGRMIPGFEDGIKGHKAGEEFTIDVTFPEEYHAENLKGKAAKFAINLKKVEERELPELTAE
In the case of B2, the “catalysis of the cis/trans isomerisation of the Ala-Tyr and Tyr-Ala peptide bonds (in words)” value is given as “neither catalyse”; the “relative intensity of the cross signal of the peptide bond Ala-Tyr” value is given as 3.96 ± 0.77; the “relative intensity of the cross signal of the peptide bond Tyr-Ala” value turned out to be 3.22 ± 0.58.

B3: trigger factor (TF): peptidyl-prolyl cis/trans isomerase (Stoller G. et al., 1995) (protein)
chain: MQVSVETTQGLGRRVTITIAADSIETAVKSELVNVAKKVRIDGFRKGKVPMNIVAQRYGASVRQDVLGDLMSRNFIDAIIKEKINPAGAPTYVPGEYKLGEDFTYSVEFEVYPEVELQGLEAIEVEKPIVEVTDADVDGMLDTLRKQQATWKEKDGAVEAEDRVTIDFTGSVDGEEFEGGKASDFVLAMGQGRMIPGFEDGIKGHKAGEEFTIDVTFPEEYHAENLKGKAAKFAINLKKVEERELPELTAEFIKRFGVEDGSVEGLRAEVRKNMERELKSAIRNRVKSQAIEGLVKANDIDVPAALIDSEIDVLRRQAAQRFGGNEKQALELPRELFEEQAKRRVVVGLLLGEVIRTNELKADEERVKGLIEEMASAYEDPKEVIEFYSKNKELMDNMRNVALEEQAVEAVLAKAKVTEKETTFNELMNQQA
For the molecule B3, the “catalysis of the cis/trans isomerisation of the Ala-Tyr and Tyr-Ala peptide bonds (in words)” value was “neither catalyse”; the “relative intensity of the cross signal of the peptide bond Ala-Tyr” value is listed as 3.83 ± 1.07; the “relative intensity of the cross signal of the peptide bond Tyr-Ala” value is reported as 4.42 ± 0.58.

The values are drawn from patent US7589065B2, “Catalysis of the cis/trans-isomerisation of secondary amide peptide compounds” (Max-Planck Gesellschaft zur Forderung der Wissenschaften, …, priority 2001, dated 2009).
